Reference: PMC6602975 (2019)
Values belong to the binder of their own block, whether it stands above or below them.

Key:
[1] = molecular target: Unmodified nucleosome core particle (X. laevis histone octamer on 147 bp Widom-601 DNA) (X. laevis)
H4K16ac nucleosome = H4K16ac nucleosome (X. laevis | , acetyl-lysine at K16)

- Kd [1]: 1100 nM
B1: Wild-type Orc1 (1–214) BAH domain (domain or fragment)
chain: MAKTLKDLQGWEIITTDEQGNIIDGGQKRLRRRGAKTEHYLKRSSDGIKLGRGDSVVMHNEAAGTYSVYMIQELRLNTLNNVVELWALTYLRWFEVNPLAHYRQFNPDANILNRPLNYYNKLFSETANKNELYLTAELAELQLFNFIRVANVMDGSKWEVLKGNVDPERDFTVRYICEPTGEKFVDINIEDVKAYIKKVEPREAQEYLKDLTLP
modifications: N-alpha-acetyl on A2 (acetylated at the α-amino group when purified from eukaryotic cells)

- Kd [1]: 300 nM
- Kd (H4K16ac nucleosome): 1200 nM
B2: Sir3 BAH D205Q (domain or fragment)
chain: MAKTLKDLDGWQVIITDDQGRVIDDNNRRRSRKRGGENVFLKRISDGLSFGKGESVIFNDNVTETYSVYLIHEIRLNTLNNVVEIWVFSYLRWFELKPKLYYEQFRPDLIKEDHPLEFYKDKFFNEVNKSELYLTAELSEIWLKDFIAVGQILPESQWNDSSIDKIEDRDFLVRYACEPTAEKFVPIDIFQIIRRVKEMEPKQSQEYLKRVSVP
